The record followed here is patent publication US20170107273A1 (JAPAN AS REPRESENTED BY DIRECTOR GENERAL OF NATIONAL …, published 2017).

* marks the point of attachment. Biotin = O=C1N[C@H]2[C@H](CS[C@H]2CCCCC(=O)*)N1

In experiment [1] the target is T1, denatured TH E2-Fc protein (Hepatitis C virus TH strain (genotype …)).
T1 construct: also called denatured E2 protein; not shown: Fc domain of human immunoglobulin (human IgG) from vector CDM-mIL7R-Ig
T1 chain: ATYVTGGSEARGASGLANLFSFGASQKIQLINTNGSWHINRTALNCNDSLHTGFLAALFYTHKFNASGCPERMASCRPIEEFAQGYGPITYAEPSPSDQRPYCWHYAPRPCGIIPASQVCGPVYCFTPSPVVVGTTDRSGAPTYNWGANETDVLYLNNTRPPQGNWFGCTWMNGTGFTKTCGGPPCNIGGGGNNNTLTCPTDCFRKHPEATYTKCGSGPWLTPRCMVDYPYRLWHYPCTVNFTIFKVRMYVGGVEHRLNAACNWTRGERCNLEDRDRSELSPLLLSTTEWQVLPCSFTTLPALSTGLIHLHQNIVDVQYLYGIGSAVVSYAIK
Nature of the experiment: ELISA, biotinylated antibody on immobilized denatured TH E2-Fc, avidin-HRP. In general terms: ELISA stands for enzyme-linked immunosorbent assay.

Experiment [2] concerns the target T2, QLINTNGSWHIN (SEQ ID NO: 37), TH E2 protein-derived peptide (Hepatitis C virus TH strain (genotype …, SMILES …)).
T2 construct: also called linear peptide of 12 amino acid residues
T2 peptide: Biotin-QLINTNGSWHING-NH2
Nature of the experiment: ELISA on biotinylated 12-mer peptides on streptavidin plates.

Experiment [3] addresses E2 protein on J6/JFH-1 HCVcc-8W (J6/JFH-1 HCVcc after 8 rounds of subculture infection in the presence of the …). Description: cell-based or functional assay.
In experiment [4] the target is T3, E2 protein of the TH strain (genotype 1b) on TH/JFH-1 HCVcc (Hepatitis C virus TH strain (genotype …)).
T3 chain: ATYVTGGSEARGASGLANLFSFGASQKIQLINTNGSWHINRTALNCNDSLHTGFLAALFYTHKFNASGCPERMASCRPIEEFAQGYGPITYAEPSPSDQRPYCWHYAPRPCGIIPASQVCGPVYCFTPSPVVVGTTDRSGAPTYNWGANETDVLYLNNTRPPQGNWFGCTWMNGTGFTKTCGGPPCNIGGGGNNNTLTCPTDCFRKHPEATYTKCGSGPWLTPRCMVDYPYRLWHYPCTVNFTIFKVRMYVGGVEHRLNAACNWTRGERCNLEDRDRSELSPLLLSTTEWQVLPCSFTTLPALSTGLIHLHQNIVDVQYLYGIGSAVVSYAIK
Description: cell-based or functional assay.

In experiment [5] the target is E2 protein of the S310 strain (genotype 3a) on S310/JFH-1 HCVcc (Hepatitis C virus S310 strain (genotype …)). Nature of the experiment: cell-based or functional assay.
The target in experiment [6] is E2 protein of the H77 strain (genotype 1a) on H77/JFH-1 HCVcc (Hepatitis C virus H77 strain (genotype …, UniProt P27958 384-746)). Nature of the experiment: cell-based or functional assay.
E2 protein of the H77 strain (genotype 1a) on H77/JFH-1 HCVcc (Hepatitis C virus H77 strain, sequence (P27958 384-746 limits assumed): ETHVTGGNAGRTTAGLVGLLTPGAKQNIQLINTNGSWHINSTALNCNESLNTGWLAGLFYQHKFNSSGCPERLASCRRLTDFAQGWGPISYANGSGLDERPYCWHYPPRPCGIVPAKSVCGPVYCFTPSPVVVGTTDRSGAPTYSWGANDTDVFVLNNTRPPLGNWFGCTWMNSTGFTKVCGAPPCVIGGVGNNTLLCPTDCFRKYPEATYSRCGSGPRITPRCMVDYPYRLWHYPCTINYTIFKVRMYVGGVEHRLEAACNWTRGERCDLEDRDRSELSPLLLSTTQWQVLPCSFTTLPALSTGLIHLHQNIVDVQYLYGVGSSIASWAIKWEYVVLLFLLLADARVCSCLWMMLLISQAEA

B1: e2d073 IgG (antibody, V domains shown)
VH: QVQLVQSGAEVKKPGSSVKVSCKASGASFNSFAIDWVRQAPGQGLEWMGRIIPIADVSDYAQKFQGRVTITADKSTRTAYMELTTLRSDDTAVYYCATSPMLTFGGPNAFGAFDVWGQGTMVTVSS
VL: not shown
notes: Human IgG1 made in CHO-K1 cells
With B1, the binding result is “no binding” in experiment [1] and “no binding (tested: 1 µg/mL)” in experiment [2]. Also, the “IC50 (µg/mL), 50% infection inhibiting concentration (infectious titer, focus count on Huh-7 cells)” value in experiment [3] was 59.4 µg/mL. Moreover, the “IC50 (µg/mL) of infection inhibiting activity against HCVcc (HCV core protein in Huh-7 cells)” value in experiment [4] was 0.25 µg/mL; in experiment [5] it was 10.4 µg/mL; in experiment [6], greater than 30 µg/mL.

B2: e2d066 IgG (antibody, V domains shown)
VH: QVQLVQSGSDVKKPGSSVRVSCKASGGSFNSYAVNWVRQAPGQGLEWMGRIMPLVGLPEYAERFQERVTFTADKSTRTAYMDLTSLSSDDTAFYFCAVGVMKIFGEVPLNLDFWGQGTLVTVSS
VL: QAVLTQPSSVSGSPGQSITISCTGTSNDVGSYRYVSWFQQHPGKAPKLMIYDVNKRPSGVSSRFSGSKSGNTASLTISGLQAEDEANYYCSSYTRSSSLAFGGGTKLTVLS
notes: Human IgG1 made in CHO-K1 cells; also called biotinylated e2d066 IgG; ed2066 IgG
B2: the binding result in experiment [2] is on record as “no binding (tested: 1 µg/mL)”. The “IC50 (µg/mL), 50% infection inhibiting concentration (infectious titer, focus count on Huh-7 cells)” value in experiment [3] is less than 0.01 µg/mL. Also, the “IC50 (µg/mL) of infection inhibiting activity against HCVcc (HCV core protein in Huh-7 cells)” value in experiment [4] was determined as 0.11 µg/mL; in experiment [5], 1.03 µg/mL; in experiment [6] it was 3.3 µg/mL.

B3: e2d081 IgG (antibody, V domains shown)
VH: QVQLVQSGSDVKKPGSSVRVSCKASGGSFNSYAVNWVRQAPGQGLEWMGRIMPLVGLPEYAERFQERVTFTADKSTRTAYMDLTSLSSDDTAFYFCAVGVMKIFGEVPLNLDFWGQGTLVTVSS
VL: QSVLTQPPSVSAAPGQKVTISCSGTSSNIGDNYVSWYQHLPGSAPKLLIYDNNKRPSGIPDRFSGSKSGTSATLGITGLQTGDEADFYCGTWDSSLSSVVFGGGTKLTVLG
notes: Human IgG1 made in CHO-K1 cells; also called eE2d081 IgG
Consider B3, for which the binding result in experiment [2] is “no binding (tested: 1 µg/mL)”. Moreover, the “IC50 (µg/mL), 50% infection inhibiting concentration (infectious titer, focus count on Huh-7 cells)” value in experiment [3] was determined as 0.67 µg/mL. The figures for the “IC50 (µg/mL) of infection inhibiting activity against HCVcc (HCV core protein in Huh-7 cells)” value in experiment [4], in experiment [5] and in experiment [6] were 0.05 µg/mL, 0.5 µg/mL and 0.66 µg/mL, respectively.
